The target in test [1] is His6-tagged N-terminal domain of turkey pancreatic lipase (turkey).
For test [2] the target is unchanged. This is another data set of the same source.

Regarding Turkey colipase (natural protein), the time for which N-TPL stays active in tributyrin (TC4) hydrolysis (pH-Stat, pH 8.5, 37°C) with colipase; without colipase the activity is lost after 3 min in test [1] was more than 8 min. Moreover, in test [2], the increase of N-TPL lipase activity on tributyrin (TC4) when colipase is present in the hydrolysis medium was found to be 15%.

For the origin of these results see publication PMC3745449.
